# Measured values published in US20100081612A1 (GENERAL HOSPITAL, published 2010).
# Where no end group is shown, it is not given here. [ ]: non-standard residue; d: D form. Cha = N[C@@H](CC1CCCCC1)C(=O)O
# T1: wild-type human PTHR (human, UniProt Q03431 27-593)
# T1 construct: whole, on cells; also called PTHR-WT; intact PTHR
# T1 sequence (looked up): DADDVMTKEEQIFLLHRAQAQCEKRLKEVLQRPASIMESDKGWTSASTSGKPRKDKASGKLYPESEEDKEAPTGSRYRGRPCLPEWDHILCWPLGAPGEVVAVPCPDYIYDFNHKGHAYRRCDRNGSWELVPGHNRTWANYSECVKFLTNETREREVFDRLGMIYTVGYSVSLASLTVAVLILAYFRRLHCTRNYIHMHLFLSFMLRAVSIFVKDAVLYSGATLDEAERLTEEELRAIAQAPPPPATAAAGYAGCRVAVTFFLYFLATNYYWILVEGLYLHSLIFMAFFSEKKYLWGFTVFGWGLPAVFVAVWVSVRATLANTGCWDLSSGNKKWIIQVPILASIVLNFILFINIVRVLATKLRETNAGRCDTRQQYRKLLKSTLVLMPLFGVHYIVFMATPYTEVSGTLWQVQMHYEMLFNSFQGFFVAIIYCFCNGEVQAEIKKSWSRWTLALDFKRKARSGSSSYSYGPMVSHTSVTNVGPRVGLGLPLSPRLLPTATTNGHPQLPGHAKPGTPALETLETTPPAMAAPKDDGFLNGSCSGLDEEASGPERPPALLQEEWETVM
# B1: [Ala^1,Arg^19]hPTH(1-31)NH2 Met^18→Cha (peptide)
# peptide: AVSEIQLMHNLGKHLNS[Cha]RRVEWLRKKLQDV-NH2
# modifications: N-terminus assumed
# SMILES: CC[C@H](C)[C@H](NC(=O)[C@H](CCC(=O)O)NC(=O)[C@H](CO)NC(=O)[C@@H](NC(=O)[C@H](C)N)C(C)C)C(=O)N[C@@H](CCC(N)=O)C(=O)N[C@@H](CC(C)C)C(=O)N[C@@H](CCSC)C(=O)N[C@@H](Cc1c[nH]cn1)C(=O)N[C@@H](CC(N)=O)C(=O)N[C@@H](CC(C)C)C(=O)NCC(=O)N[C@@H](CCCCN)C(=O)N[C@@H](Cc1c[nH]cn1)C(=O)N[C@@H](CC(C)C)C(=O)N[C@@H](CC(N)=O)C(=O)N[C@@H](CO)C(=O)N[C@@H](CC1CCCCC1)C(=O)N[C@@H](CCCNC(=N)N)C(=O)N[C@@H](CCCNC(=N)N)C(=O)N[C@H](C(=O)N[C@@H](CCC(=O)O)C(=O)N[C@@H](Cc1c[nH]c2ccccc12)C(=O)N[C@@H](CC(C)C)C(=O)N[C@@H](CCCNC(=N)N)C(=O)N[C@@H](CCCCN)C(=O)N[C@@H](CCCCN)C(=O)N[C@@H](CC(C)C)C(=O)N[C@@H](CCC(N)=O)C(=O)N[C@@H](CC(=O)O)C(=O)N[C@H](C(N)=O)C(C)C)C(C)C
# B2: [Ala^1,Arg^19]hPTH(1-31)NH2 Glu^22→Cha (peptide)
# peptide: AVSEIQLMHNLGKHLNSMRRV[Cha]WLRKKLQDV-NH2
# modifications: N-terminus assumed
# SMILES: CC[C@H](C)[C@H](NC(=O)[C@H](CCC(=O)O)NC(=O)[C@H](CO)NC(=O)[C@@H](NC(=O)[C@H](C)N)C(C)C)C(=O)N[C@@H](CCC(N)=O)C(=O)N[C@@H](CC(C)C)C(=O)N[C@@H](CCSC)C(=O)N[C@@H](Cc1c[nH]cn1)C(=O)N[C@@H](CC(N)=O)C(=O)N[C@@H](CC(C)C)C(=O)NCC(=O)N[C@@H](CCCCN)C(=O)N[C@@H](Cc1c[nH]cn1)C(=O)N[C@@H](CC(C)C)C(=O)N[C@@H](CC(N)=O)C(=O)N[C@@H](CO)C(=O)N[C@@H](CCSC)C(=O)N[C@@H](CCCNC(=N)N)C(=O)N[C@@H](CCCNC(=N)N)C(=O)N[C@H](C(=O)N[C@@H](CC1CCCCC1)C(=O)N[C@@H](Cc1c[nH]c2ccccc12)C(=O)N[C@@H](CC(C)C)C(=O)N[C@@H](CCCNC(=N)N)C(=O)N[C@@H](CCCCN)C(=O)N[C@@H](CCCCN)C(=O)N[C@@H](CC(C)C)C(=O)N[C@@H](CCC(N)=O)C(=O)N[C@@H](CC(=O)O)C(=O)N[C@H](C(N)=O)C(C)C)C(C)C
# B3: [Ala^1,Arg^19]hPTH(1-31)NH2 Lys^27→Cha (peptide)
# peptide: AVSEIQLMHNLGKHLNSMRRVEWLRK[Cha]LQDV-NH2
# modifications: N-terminus assumed
# SMILES: CC[C@H](C)[C@H](NC(=O)[C@H](CCC(=O)O)NC(=O)[C@H](CO)NC(=O)[C@@H](NC(=O)[C@H](C)N)C(C)C)C(=O)N[C@@H](CCC(N)=O)C(=O)N[C@@H](CC(C)C)C(=O)N[C@@H](CCSC)C(=O)N[C@@H](Cc1c[nH]cn1)C(=O)N[C@@H](CC(N)=O)C(=O)N[C@@H](CC(C)C)C(=O)NCC(=O)N[C@@H](CCCCN)C(=O)N[C@@H](Cc1c[nH]cn1)C(=O)N[C@@H](CC(C)C)C(=O)N[C@@H](CC(N)=O)C(=O)N[C@@H](CO)C(=O)N[C@@H](CCSC)C(=O)N[C@@H](CCCNC(=N)N)C(=O)N[C@@H](CCCNC(=N)N)C(=O)N[C@H](C(=O)N[C@@H](CCC(=O)O)C(=O)N[C@@H](Cc1c[nH]c2ccccc12)C(=O)N[C@@H](CC(C)C)C(=O)N[C@@H](CCCNC(=N)N)C(=O)N[C@@H](CCCCN)C(=O)N[C@@H](CC1CCCCC1)C(=O)N[C@@H](CC(C)C)C(=O)N[C@@H](CCC(N)=O)C(=O)N[C@@H](CC(=O)O)C(=O)N[C@H](C(N)=O)C(C)C)C(C)C
# notes: also called Cha^27 analog
# B4: [Ala^1,Arg^19]hPTH(1-31)NH2 Val^21→Cha (peptide)
# peptide: AVSEIQLMHNLGKHLNSMRR[Cha]EWLRKKLQDV-NH2
# modifications: N-terminus assumed
# SMILES: CC[C@H](C)[C@H](NC(=O)[C@H](CCC(=O)O)NC(=O)[C@H](CO)NC(=O)[C@@H](NC(=O)[C@H](C)N)C(C)C)C(=O)N[C@@H](CCC(N)=O)C(=O)N[C@@H](CC(C)C)C(=O)N[C@@H](CCSC)C(=O)N[C@@H](Cc1c[nH]cn1)C(=O)N[C@@H](CC(N)=O)C(=O)N[C@@H](CC(C)C)C(=O)NCC(=O)N[C@@H](CCCCN)C(=O)N[C@@H](Cc1c[nH]cn1)C(=O)N[C@@H](CC(C)C)C(=O)N[C@@H](CC(N)=O)C(=O)N[C@@H](CO)C(=O)N[C@@H](CCSC)C(=O)N[C@@H](CCCNC(=N)N)C(=O)N[C@@H](CCCNC(=N)N)C(=O)N[C@@H](CC1CCCCC1)C(=O)N[C@@H](CCC(=O)O)C(=O)N[C@@H](Cc1c[nH]c2ccccc12)C(=O)N[C@@H](CC(C)C)C(=O)N[C@@H](CCCNC(=N)N)C(=O)N[C@@H](CCCCN)C(=O)N[C@@H](CCCCN)C(=O)N[C@@H](CC(C)C)C(=O)N[C@@H](CCC(N)=O)C(=O)N[C@@H](CC(=O)O)C(=O)N[C@H](C(N)=O)C(C)C
# B5: [Ala^1,Arg^19]hPTH(1-31)NH2 Arg^19→Cha (peptide)
# peptide: AVSEIQLMHNLGKHLNSM[Cha]RVEWLRKKLQDV-NH2
# modifications: N-terminus assumed
# SMILES: CC[C@H](C)[C@H](NC(=O)[C@H](CCC(=O)O)NC(=O)[C@H](CO)NC(=O)[C@@H](NC(=O)[C@H](C)N)C(C)C)C(=O)N[C@@H](CCC(N)=O)C(=O)N[C@@H](CC(C)C)C(=O)N[C@@H](CCSC)C(=O)N[C@@H](Cc1c[nH]cn1)C(=O)N[C@@H](CC(N)=O)C(=O)N[C@@H](CC(C)C)C(=O)NCC(=O)N[C@@H](CCCCN)C(=O)N[C@@H](Cc1c[nH]cn1)C(=O)N[C@@H](CC(C)C)C(=O)N[C@@H](CC(N)=O)C(=O)N[C@@H](CO)C(=O)N[C@@H](CCSC)C(=O)N[C@@H](CC1CCCCC1)C(=O)N[C@@H](CCCNC(=N)N)C(=O)N[C@H](C(=O)N[C@@H](CCC(=O)O)C(=O)N[C@@H](Cc1c[nH]c2ccccc12)C(=O)N[C@@H](CC(C)C)C(=O)N[C@@H](CCCNC(=N)N)C(=O)N[C@@H](CCCCN)C(=O)N[C@@H](CCCCN)C(=O)N[C@@H](CC(C)C)C(=O)N[C@@H](CCC(N)=O)C(=O)N[C@@H](CC(=O)O)C(=O)N[C@H](C(N)=O)C(C)C)C(C)C
# Biological target: PTHR-delNt (human) (UniProt Q03431)
# Assay: competition binding, COS-7 membranes, 125I-[Aib1,3,M]PTH(1-15) tracer
Binder,IC50 [nM],"fold change in binding affinity vs [Ala^1,Arg^19]PTH(1-31)NH2 [fold]"
B1,408,< 3
B2,126,< 3
B3,629,< 3
B4,564,< 3
B5,780,< 3

# Biological target: T1, wild-type human PTHR
# Assay: competition binding, HKRK-B7 cells, 125I-PTH(1-34) tracer
# Experimental: Receptor binding—Binding to the wild-type human PTHR in intact HKRK-B7 cells and ROS 17/2.8 cells was assessed using ¹²⁵I-PTH(1-34) as a tracer radioligand, as described (Shimizu, M., (2001) Endocrinology 142:3068-3074). In brief, the cells in 24-well plates (about 500,000 cells per well) were incubated in binding buffer containing radioligand (about 100,000 cpm per well) with or without unlabeled peptide ligand (3×10⁻⁹ to 1×10⁻⁵ M) for four hours at 15° C. The binding mixture was then removed by aspiration, the cells were rinsed three times with binding buffer, lysed in 1 M NaOH, and the entire lysate was counted for gamma-irradiation in a gamma counter. Binding to PTHR-delNt in COS-7 cell membranes was assessed in 96-well, vacuum filtration plates (Multiscreen-Durapore HV, […], Millipore Corp., Millford, Mass.) using ¹²⁵I-[Aib^{1,3},M]PTH(1-15)NH₂ as a tracer radioligand, as described (Dean, T., (2006) Mol Endocrinol 20:931-942). In brief, cell membranes (20 μg/well) were incubated in membrane binding buffer containing radioligand (30,000 cpm/well) with or without unlabeled peptide ligand (3×10⁻⁹ to 1×10⁻⁵ M) for 90 minutes at 21° C. The plates were then subject to rapid vacuum filtration, the filters were washed once with buffer, detached from the plate and counted for gamma-irradiation in a gamma counter. Non-specific binding was defined as the binding observed in the presence of 1×10⁻⁶ M PTH(1-31)NH₂ for HKRK-B7 and ROS 17/2.8 cells, and 1×10⁻⁶ M [Aib^{1,3},M]PTH(1-15)NH₂ for PTHR-delNt. Specifically bound radioactivity was calculated as a percentage of the radioactivity specifically bound in the absence of competing ligand.
# Cyclohexylalanine and glutamate substitutions were introduced into [Ala¹,Arg¹⁹]hPTH(1-31)NH₂. The helical residue values were calculated from [θ]₂₂₂, the mean-residue elipticities observed in the CD spectra at 222 nm. Competition binding studies were performed in intact HKRK-B7 cells stably transfected with the hPTHR using ¹²⁵I-[Nle^{8,21},Tyr³⁴]rPTH(1-34)NH ₂ tracer radioligand, and in membranes prepared from COS-7 cells transiently transfected with hPTHR-delNt and a negative-dominant Gαs using ¹²⁵I-[Aib^{1,3},Nle⁸,Gln¹⁰,Har¹¹,Ala¹²,Trp¹⁴,Tyr¹⁵]rPTH(1-15)NH₂ tracer radioligand. Binding values (nM) are means (+/−s.e.m.) of data from the number of experiments indicated (n).
row,Binder,IC50 [nM]
1,B1,87
2,B2,75
3,B3,91
4,B4,74
5,B5,233

# Biological target: T1, wild-type human PTHR
# Assay: as above
# Remark: another data set of the same source
row,Binder,"fold change in binding affinity vs [Ala^1,Arg^19]PTH(1-31)NH2 [fold]"
1,B1,≤ 6
2,B2,≤ 6
3,B3,≤ 6
4,B4,≤ 6
5,B5,≤ 6
